Positions count from the first letter of the chain named.
B1: T0263018B11 A33G (VHH, name in Kabat numbering)
VHH: EVQLVESGGGVVQPGGSLRLSCAASGFTFSSYGMYWVRQAPGKGLEWVSAISSGGGSTDYADSVKGRFTISRDNSKNTLYLQMNSLRPEDTALYYCAADTLYTSLTWYSYWGQGTLVTVSS
notes: FLAG3-His6 tagged
B2: T0263018B11 A33H (VHH, name in Kabat numbering)
VHH: B1 VHH with G33H
notes: FLAG3-His6 tagged
B3: T0263018B11 A33P (VHH, name in Kabat numbering)
VHH: B1 VHH with G33P
notes: FLAG3-His6 tagged
B4: T0263018B11 A33Q (VHH, name in Kabat numbering)
VHH: B1 VHH with G33Q
notes: FLAG3-His6 tagged
B5: T0263018B11 A33S (VHH, name in Kabat numbering)
VHH: B1 VHH with G33S
notes: FLAG3-His6 tagged
B6: T0263018B11 A33T (VHH, name in Kabat numbering)
VHH: B1 VHH with G33T
notes: FLAG3-His6 tagged
B7: T0263018B11 A33V (VHH, name in Kabat numbering)
VHH: B1 VHH with G33V
notes: FLAG3-His6 tagged
B8: T0263018B11 A93T (VHH, name in Kabat numbering)
VHH: B1 VHH with G33A, A97T
notes: FLAG3-His6 tagged
B9: T0263018B11 A93V (VHH, name in Kabat numbering)
VHH: B1 VHH with G33A, A97V
notes: FLAG3-His6 tagged
B10: T0263018B11 A94S (VHH, name in Kabat numbering)
VHH: B1 VHH with G33A, A98S
notes: FLAG3-His6 tagged
B11: T0263018B11 D58A (VHH, name in Kabat numbering)
VHH: B1 VHH with G33A, D59A
notes: FLAG3-His6 tagged
B12: T0263018B11 D58E (VHH, name in Kabat numbering)
VHH: B1 VHH with G33A, D59E
notes: FLAG3-His6 tagged
B13: T0263018B11 D58H (VHH, name in Kabat numbering)
VHH: B1 VHH with G33A, D59H
notes: FLAG3-His6 tagged
B14: T0263018B11 D58V (VHH, name in Kabat numbering)
VHH: B1 VHH with G33A, D59V
notes: FLAG3-His6 tagged
B15: T0263018B11 D58Y (VHH, name in Kabat numbering)
VHH: B1 VHH with G33A, D59Y
notes: FLAG3-His6 tagged
B16: T0263018B11 F27I (VHH, name in Kabat numbering)
VHH: B1 VHH with F27I, G33A
notes: FLAG3-His6 tagged
B17: T0263018B11 F27L (VHH, name in Kabat numbering)
VHH: B1 VHH with F27L, G33A
notes: FLAG3-His6 tagged
B18: T0263018B11 F27Y (VHH, name in Kabat numbering)
VHH: B1 VHH with F27Y, G33A
notes: FLAG3-His6 tagged
B19: T0263018B11 F29D (VHH, name in Kabat numbering)
VHH: B1 VHH with F29D, G33A
notes: FLAG3-His6 tagged
B20: T0263018B11 F29Q (VHH, name in Kabat numbering)
VHH: B1 VHH with F29Q, G33A
notes: FLAG3-His6 tagged
B21: T0263018B11 G26L (VHH, name in Kabat numbering)
VHH: B1 VHH with G26L, G33A
notes: FLAG3-His6 tagged
B22: T0263018B11 S30M (VHH, name in Kabat numbering)
VHH: B1 VHH with S30M, G33A
notes: FLAG3-His6 tagged
B23: T0263018B11 S52aD (VHH, name in Kabat numbering)
VHH: B1 VHH with G33A, S53D
notes: FLAG3-His6 tagged
B24: T0263018B11 S56E (VHH, name in Kabat numbering)
VHH: B1 VHH with G33A, S57E
notes: FLAG3-His6 tagged
B25: T0263018B11 S56M (VHH, name in Kabat numbering)
VHH: B1 VHH with G33A, S57M
notes: FLAG3-His6 tagged
B26: T0263018B11 S100A (VHH, name in Kabat numbering)
VHH: B1 VHH with G33A, S104A
notes: FLAG3-His6 tagged
B27: T0263018B11 S100W (VHH, name in Kabat numbering)
VHH: B1 VHH with G33A, S104W
notes: FLAG3-His6 tagged
B28: T0263018B11 T28A (VHH, name in Kabat numbering)
VHH: B1 VHH with T28A, G33A
notes: FLAG3-His6 tagged
B29: T0263018B11 T28G (VHH, name in Kabat numbering)
VHH: B1 VHH with T28G, G33A
notes: FLAG3-His6 tagged
B30: T0263018B11 T57D (VHH, name in Kabat numbering)
VHH: B1 VHH with G33A, T58D
notes: FLAG3-His6 tagged
B31: T0263018B11 T57E (VHH, name in Kabat numbering)
VHH: B1 VHH with G33A, T58E
notes: FLAG3-His6 tagged
B32: T0263018B11 T57G (VHH, name in Kabat numbering)
VHH: B1 VHH with G33A, T58G
notes: FLAG3-His6 tagged
B33: T0263018B11 T57M (VHH, name in Kabat numbering)
VHH: B1 VHH with G33A, T58M
notes: FLAG3-His6 tagged
B34: T0263018B11 T57R (VHH, name in Kabat numbering)
VHH: B1 VHH with G33A, T58R
notes: FLAG3-His6 tagged
B35: T0263018B11 T57Y (VHH, name in Kabat numbering)
VHH: B1 VHH with G33A, T58Y
notes: FLAG3-His6 tagged
B36: T0263018B11 T96G (VHH, name in Kabat numbering)
VHH: B1 VHH with G33A, T100G
notes: FLAG3-His6 tagged
B37: T0263018B11 Y32M (VHH, name in Kabat numbering)
VHH: B1 VHH with Y32M, G33A
notes: FLAG3-His6 tagged
B38: T0263018B11 Y32N (VHH, name in Kabat numbering)
VHH: B1 VHH with Y32N, G33A
notes: FLAG3-His6 tagged

Columns and labels:
cyno FcRn/b2M [1] = biological target: T1, cyno FcRn/b2M (cyno, UniProt Q8SPV9 24-297; Q8SPW0 21-119, biotinylated); test: SPR pH 6.0;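 also: surface plasmon resonance kinetics at 25 °C, diluted periplasmic extracts injected over immobilized ligand surfaces, 120 s association then 600–3600 s dissociation, running buffer containing 150 mM NaCl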
T1 construct: bought recombinant biotinylated protein (Immunitrack ITF05 or ACRO FCM-C82W5); also called cFcRn; cFcRn/cb2M
Experimental: (§1) All kinetic measurements have been performed on ProteOn XPR36 (BioRad Laboratories, Inc.), MASS-2 (Sierra sensors, Gmbh) or SPR-32 (Bruker Corporation). […] The phytip purified periplasmic extracts were diluted 1:10 in running buffer (CPA+150 mM NaCl+0.005% Tw20 at pH 5.5, pH 6.0 or pH 7.4) and injected over the ligand surfaces (association: 120 s at 45 μL/min; dissociation: 600s-3600 s at 45 μL/min). Experiments were carried out at 25° C.

human FcRn/b2M [2] = biological target: T2, human FcRn/b2M (human, UniProt P61769 21-119, biotinylated); test: SPR pH 6.0;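 also: surface plasmon resonance kinetics at 25 °C, diluted periplasmic extracts injected over immobilized ligand surfaces, 120 s association then 600–3600 s dissociation, running buffer containing 150 mM NaCl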
T2 construct: bought recombinant biotinylated protein (ACRO FCM-H82W4 or Immunitrack ITF01); also called hFcRn; hFcRn/hb2M
Experimental: as §1

cyno FcRn/b2M [3] = biological target: T1, cyno FcRn/b2M; test: SPR pH 7.4;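 also: surface plasmon resonance kinetics, periplasmic extracts diluted 1:10 flowed over immobilized target at 25 °C, 120 s association then 600–3600 s dissociation, buffer with 150 mM NaCl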
Experimental: as §1

human FcRn/b2M [4] = biological target: T2, human FcRn/b2M; test: SPR pH 7.4;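 also: surface plasmon resonance kinetics, periplasmic extracts diluted 1:10 flowed over immobilized target at 25 °C, 120 s association then 600–3600 s dissociation, buffer with 150 mM NaCl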
Experimental: as §1

cyno FcRn/b2M [5] = biological target: T1, cyno FcRn/b2M; test: SPR off-rate; pH 7.4 vs pH 6.0;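 also: surface plasmon resonance with diluted periplasmic extracts flowed over ligand surfaces, 120 s association and 600–3600 s dissociation at 25 °C, running buffer containing 150 mM NaCl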
Experimental: as §1

human FcRn/b2M [6] = biological target: T2, human FcRn/b2M; test: SPR off-rate; pH 7.4 vs pH 6.0;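 also: surface plasmon resonance with diluted periplasmic extracts flowed over ligand surfaces, 120 s association and 600–3600 s dissociation at 25 °C, running buffer containing 150 mM NaCl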
Experimental: as §1

T2 sequence (chain, as listed by the source limits assumed, chain 1 of 2): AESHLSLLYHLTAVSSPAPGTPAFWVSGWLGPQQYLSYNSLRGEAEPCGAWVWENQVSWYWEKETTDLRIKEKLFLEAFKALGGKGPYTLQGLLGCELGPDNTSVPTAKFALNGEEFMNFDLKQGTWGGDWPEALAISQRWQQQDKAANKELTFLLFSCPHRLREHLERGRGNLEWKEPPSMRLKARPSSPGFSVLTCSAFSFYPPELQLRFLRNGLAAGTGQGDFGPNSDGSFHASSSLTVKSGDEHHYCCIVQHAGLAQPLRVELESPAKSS
T2 sequence (P61769 21-119 limits assumed, chain 2 of 2): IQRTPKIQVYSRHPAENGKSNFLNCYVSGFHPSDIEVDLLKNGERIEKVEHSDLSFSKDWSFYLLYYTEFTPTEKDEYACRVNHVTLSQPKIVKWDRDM
T1 sequence (Q8SPV9 24-297 limits assumed, chain 1 of 2): as the sequence (chain, as listed by the source limits assumed, chain 1 of 2) above, with N39D, E44Q, G99S, S189G, S190N, L217M, S269T counted along it
T1 sequence (Q8SPW0 21-119 limits assumed, chain 2 of 2): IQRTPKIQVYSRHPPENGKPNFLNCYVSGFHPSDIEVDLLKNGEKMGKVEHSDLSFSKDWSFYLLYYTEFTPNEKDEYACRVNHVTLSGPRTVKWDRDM

Binder	koff (cyno FcRn/b2M [1])	koff (human FcRn/b2M [2])	koff (cyno FcRn/b2M [3])	koff (human FcRn/b2M [4])	kd ratio pH 7.4/6.0 (cyno FcRn/b2M [5])	kd ratio pH 7.4/6.0 (human FcRn/b2M [6])
B1	0.0011 s⁻¹	0.0013 s⁻¹	0.04 s⁻¹	0.034 s⁻¹	36	26
B2	0.00077 s⁻¹	0.00076 s⁻¹	0.037 s⁻¹			
B3	0.00099 s⁻¹		0.045 s⁻¹	0.041 s⁻¹		
B4	0.0027 s⁻¹	0.0018 s⁻¹	0.13 s⁻¹	0.065 s⁻¹	48	36
B5	0.0013 s⁻¹	0.0015 s⁻¹	0.065 s⁻¹	0.059 s⁻¹	50	39
B6	0.00011 s⁻¹	0.00011 s⁻¹	0.0058 s⁻¹	0.0038 s⁻¹	54	36
B7	0.00024 s⁻¹	0.00022 s⁻¹	0.013 s⁻¹	0.0082 s⁻¹	53	37
B8	0.0019 s⁻¹	0.0025 s⁻¹	0.12 s⁻¹			
B9	0.0021 s⁻¹	0.003 s⁻¹	0.14 s⁻¹	0.15 s⁻¹	67	50
B10	0.0011 s⁻¹	0.0013 s⁻¹	0.047 s⁻¹	0.046 s⁻¹	43	35
B11	0.0026 s⁻¹	0.0089 s⁻¹	0.036 s⁻¹			
B12	0.0012 s⁻¹	0.0024 s⁻¹	0.038 s⁻¹	0.08 s⁻¹	32	33
B13	0.002 s⁻¹	0.012 s⁻¹	0.022 s⁻¹	0.079 s⁻¹	11	7
B14	0.0025 s⁻¹	0.015 s⁻¹	0.027 s⁻¹	0.14 s⁻¹	11	9
B15	0.002 s⁻¹	0.01 s⁻¹	0.025 s⁻¹	0.089 s⁻¹	12	9
B16	0.00036 s⁻¹		0.031 s⁻¹	0.045 s⁻¹		
B17	0.001 s⁻¹	0.0013 s⁻¹	0.048 s⁻¹	0.05 s⁻¹	48	38
B18	0.00042 s⁻¹	0.0012 s⁻¹	0.039 s⁻¹	0.054 s⁻¹	93	45
B19	0.0028 s⁻¹	0.0036 s⁻¹	0.15 s⁻¹	0.14 s⁻¹	54	39

Binder	koff (cyno FcRn/b2M [1])	koff (human FcRn/b2M [2])	koff (cyno FcRn/b2M [3])	koff (human FcRn/b2M [4])	kd ratio pH 7.4/6.0 (cyno FcRn/b2M [5])	kd ratio pH 7.4/6.0 (human FcRn/b2M [6])
B20	0.0017 s⁻¹	0.0021 s⁻¹	0.088 s⁻¹			
B21	0.00087 s⁻¹		0.054 s⁻¹	0.041 s⁻¹		
B22	0.00069 s⁻¹	0.00074 s⁻¹	0.022 s⁻¹			
B23	0.00089 s⁻¹		0.051 s⁻¹	0.044 s⁻¹		
B24	0.0019 s⁻¹	0.0026 s⁻¹	0.1 s⁻¹			
B25						31
B26	0.00021 s⁻¹	0.00025 s⁻¹	0.0099 s⁻¹			
B27	0.00029 s⁻¹	0.00062 s⁻¹	0.015 s⁻¹			
B28	0.00052 s⁻¹		0.033 s⁻¹	0.046 s⁻¹		
B29	0.0002 s⁻¹	0.00075 s⁻¹	0.028 s⁻¹			
B30	0.00063 s⁻¹	0.00073 s⁻¹	0.026 s⁻¹			
B31	0.00055 s⁻¹	0.00076 s⁻¹	0.024 s⁻¹			
B32	0.0011 s⁻¹	0.0013 s⁻¹	0.04 s⁻¹			
B33	0.0007 s⁻¹	0.00098 s⁻¹	0.027 s⁻¹			
B34	0.00071 s⁻¹	0.00086 s⁻¹	0.026 s⁻¹			
B35	0.00084 s⁻¹		0.035 s⁻¹	0.033 s⁻¹		
B36	0.0084 s⁻¹	0.014 s⁻¹	0.21 s⁻¹			
B37	0.0025 s⁻¹	0.006 s⁻¹	0.18 s⁻¹			
B38	0.0018 s⁻¹	0.0025 s⁻¹	0.083 s⁻¹			

From patent publication US20240132624A1 (Ablynx, published 2024)
